Measured values published in paper PMC12216424.

Key:
[1] = target: LbCas12a (cryo-EM, assembled with crRNA) (UniProt A0A5S8WF58 1-1228); experiment: cryo-EM structure
[2] = target: LbCas12a (UniProt A0A5S8WF58 1-1228); experiment: thermal shift

**Q.** Does UAAUUUCUACUAAGUGUAGAUGGGGUUUGAGGUCCAUUACA (structured_RNA) [12a-crRNA] bind [1]?
**A.** Result: binds

**Q.** Does GCGACTCGGTTCTTGCCTAAG (XNA, all 20 linkages phosphorothioate) [PS DNA1] bind [2]?
**A.** Result: binds
